Source: the supplement of paper PMC10567573
± gives the standard deviation.

Assay: protein stability index of a GFP-peptide fusion (GPS, HEK-293T) (PSI 1-6); higher = more stable
[1] = treatment: DMSO, c terminus: a fixed tail appended
[2] = treatment: MLN4924 1 uM, 8 h, c terminus: a fixed tail appended
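Further: 24-mer peptide tiles fused after GFP, lentivirally expressed, FACS-sorted into six equal bins by GFP/DsRed ratio, decoded by Illumina sequencing, PSI is the read-weighted mean bin number.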

Sequence | protein stability index [1] | protein stability index [2] | protein stability index (treatment: DMSO, c terminus: native) | protein stability index (treatment: MLN4924 1 uM, 8 h, c terminus: native)
SRLVKYPLLLKEILKHTPKEHPDV [NET1] | 2.71 ± 0.18 | 2.92 ± 0.32 | – | –
DFVNLMAYDFHGSWEKVTGHNSPL [CHIT1] | 1.9 ± 0.23 | 2.06 ± 0.19 | – | –
GDDGIVVVWNAQTGEKLLELNGHT [WDR41] | 3.39 ± 0.11 | 3.3 ± 0.35 | – | –
AQDDDRLREERKKAKKNKDKYVGV [CLINT1] | 5.27 ± 0.17 | 5.48 ± 0.38 | – | –
PDTRHPCSLGSSLVADYSDSESE [YJU2B] | – | – | 5.39 ± 0.1 | 5.29 ± 0.13
RTLSAFLCLGGLACLIVMFLPEKK [SLC22A15] | 3.25 ± 0.42 | 2.64 ± 0.36 | – | –
CMVEIVQKYDPDKDEWHKVFDLPE [KLHL13] | 2.52 ± 0.27 | 2.59 ± 0.24 | – | –
FEEFVHYLQDHEKKLRLVFKSLDK [SLC25A25] | 2.18 ± 0.27 | 2.51 ± 0.31 | – | –
SGFLKEMACPYSVLISGDIKDRLK [FAM98B] | 2.38 ± 0.49 | 2.52 ± 0.18 | – | –
MSDYRGFGIGSEILKNLSQVAMRC [SAT1] | 2.11 ± 0.48 | 2.46 ± 0.56 | – | –
ICYLPHWMMQNLLLEEGGLVQVES [UFD1] | 2.65 ± 0.34 | 2.7 ± 0.5 | – | –
RVFKARIYTNRYETNEEDKTLQEI [FBXO39] | 2.98 ± 0.34 | 3.43 ± 0.38 | – | –
TENRRLESKIREHLEKKGPQVRDW [KRT18] | 3.92 ± 0.16 | 3.95 ± 0.33 | – | –
PLRLFLIIANTMAFQNDVYEWARD [SCD] | 2.75 ± 0.61 | 2.87 ± 0.61 | – | –
THKKCKEEVVSTLDAVQVLSGVSQ [FCHO1] | 3.77 ± 0.23 | 3.64 ± 0.16 | – | –
KLTDFGFAKKLVDRTWTLCGTPEY [PRKX] | 2.12 ± 0.11 | 2.27 ± 0.23 | – | –
NLPNLAAAYSSILSSLGENPQRQG [GCH1] | 3.03 ± 0.2 | 3.2 ± 0.43 | – | –
VPIPTVNQYLYFLFAPTLIYRDSY [SOAT1] | 3.32 ± 0.3 | 3.24 ± 0.24 | – | –

Sequence | protein stability index [1] | protein stability index [2] | protein stability index (treatment: DMSO, c terminus: native) | protein stability index (treatment: MLN4924 1 uM, 8 h, c terminus: native)
EKGETMEVIEKPENDPEWWKCKNA [NCK2] | 5.36 ± 0.32 | 5.486 ± 0.04 | – | –
PLYTLIDVLKYSYVRLVCKDVRAP [ZSWIM9] | 2.84 ± 0.25 | 3.02 ± 0.63 | – | –
VLQENYTHLPKADIFALALTVVCA [WEE1] | 2.69 ± 0.85 | 2.38 ± 0.27 | – | –
SSPSVSGPRRLVSCLSSQSSALSQ [SPACA3] | 3.4 ± 0.27 | 3.52 ± 0.35 | – | –
RRRWCPAGIMLLALVCLLSCLLPS [SPACA3] | 2.85 ± 0.55 | 2.77 ± 0.3 | – | –
LMLGKTSISDLSEHVFDLILELYN [PDS5B] | 2.59 ± 0.33 | 2.44 ± 0.47 | – | –
TESEIESETDFETEPETAPTTEPE [GNAS] | 5.66 ± 0.2 | 5.68 ± 0.27 | – | –
KKTCRRINYCALNKPGCEHECVNM [MATN2] | 2.8 ± 0.38 | 2.95 ± 0.74 | – | –
ASREENQAGPEATTSDPQDLDMKK [PALM] | 5.53 ± 0.46 | 5.43 ± 0.42 | – | –
EELANLRASQREYEELRNSERAEV [RSPH3] | 5.21 ± 0.4 | 5.18 ± 0.31 | – | –
LQSISWDPEDFEDAWKRPDALPGQ [TLE6] | 3.98 ± 0.29 | 3.87 ± 0.43 | – | –
GLSDPGKIKRLRSQVQVSLEDYIN [HNF4A] | 2.78 ± 0.34 | 2.93 ± 0.18 | – | –
GKQAPRKKAQGKTQQNRKLTDFYP [KMT5A] | 3.64 ± 0.42 | 4.21 ± 0.41 | – | –
LQSLDDTELRLLGRTHSACDALRT [RSAD1] | 3.64 ± 0.2 | 3.85 ± 0.18 | – | –
AWNSPFYNCGEESLQSCMHFQPNS [NANOGP8] | 2.41 ± 0.13 | 2.43 ± 0.41 | – | –
AGFDAARGDPLGGCQVSPEGYAHL [HDAC6] | 3.75 ± 0.26 | 3.78 ± 0.2 | – | –
GRLGRRDEDAGLPRPVQLDETHPY [NEK8] | 4.46 ± 0.066 | 4.7 ± 0.1 | – | –
LQSFEDLASISTYGFRGEALASIS [MLH1] | 2.78 ± 0.16 | 2.71 ± 0.3 | – | –
